Measurements reported in patent US20100092464A1 (Novartis, published 2010).
Read-outs that look alike come from different tables or passages of the source.

T1: human macrophage colony stimulating factor (M-CSF) (human, UniProt P09603 33-190, limits assumed)
T1 sequence: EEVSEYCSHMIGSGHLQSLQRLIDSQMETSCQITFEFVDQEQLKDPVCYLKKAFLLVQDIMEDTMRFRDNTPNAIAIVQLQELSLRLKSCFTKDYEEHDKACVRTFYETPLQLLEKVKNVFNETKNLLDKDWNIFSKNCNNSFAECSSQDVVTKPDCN


What was measured:
[1] = biological target: T1, human macrophage colony stimulating …; assay: cell-based or functional assay
[2] = biological target: T1, human macrophage colony stimulating …; assay: cell-based or functional assay; remark: listed apart in the source
[3] = biological target: T1, human macrophage colony stimulating …; assay: cell-based or functional assay; remark: listed apart in the source
[4] = biological target: T1, human macrophage colony stimulating …; assay: M-CSF and antibody mixed at equal molar ratios; size exclusion chromatography or light scattering
Excerpt: The antigen-antibody complexes that the various Human Engineered™ RX1 antibodies formed with MCSF were studied by combining M-CSF and antibody in buffer at equal molar ratios, followed by analysis of the size of the antigen-antibody complex using size exclusion chromatography or light scattering. […] The heRX1-9.G2 or 1-10.G2 antibodies appeared to form 2:1 or 2:2 complexes with MCSF of about 400 kDa. The heRX1-1.G2 appeared to form large lattice aggregates with MCSF of greater than 2×10⁶ Da. The IgG1 and IgG4 constructs formed small complexes similar to that of murine parent RX1.

[5] = biological target: T1, human macrophage colony stimulating …; assay: cell-based or functional assay; remark: listed apart in the source
[6] = biological target: T1, human macrophage colony stimulating …; assay: cell-based or functional assay; remark: listed apart in the source

| IC50 (read off the curve) [1] [µg/mL] | IC50 Fold Loss (M-NFS-60 cell proliferation) [2] [fold] | IC50 (read off the curve) [3] [µg/mL] | Binder | also measured |
| --- | --- | --- | --- | --- |
| ~0.03 | 2.8 | ~0.02 | Human Engineered RX1 antibody heRX1-1.G2 (antibody, V domains shown) VH: DVQLQESGPGLVKPSQTLSLTCTVTDYSITSDYAWNWIRQFPGKKLEWMGYISYSGSTSYNPSLKSRITISRDTSKNQFSLQLNSVTAADTATYYCASFDYAHAMDYWGQGTTVTVSS VL: EIVLTQSPGTLSVSPGERVTFSCRASQSIGTSIHWYQQKTGQSPRLLIKYASERISGIPDRFSGSGSGTDFTLTISRVESEDFADYYCQQINSWPTTFGQGTKLEIKR | – |
| – | 2.2 | – | Human Engineered RX1 antibody heRX1-10.G2 (antibody, V domains shown, Human Gamma-2 / Kappa constant regions) VH: QVQLQESGPGLVKPSQTLSLTCTVSDYSITSDYAWNWIRQFPGKGLEWMGYISYSGSTSYNPSLKSRITISRDTSKNQFSLQLNSVTAADTAVYYCASFDYAHAMDYWGQGTTVTVSS VL: DIVLTQSPAFLSVTPGEKVTFTCQASQSIGTSIHWYQQKTDQAPKLLIKYASESISGIPSRFSGSGSGTDFTLTISSVEAEDAADYYCQQINSWPTTFGGGTKLEIKR | size of antigen-antibody complex [4]: ~400 kDa |
| – | – | – | Fab fragment of recombinant murine RX1 (Fab, V domains shown) VH: DVQLQESGPGLVKPSQSLSLTCTVTDYSITSDYAWNWIRQFPGNKLEWMGYISYSGSTSYNPSLKSRISITRDTSKNQFFLQLNSVTTEDTATYYCASFDYAHAMDYWGQGTSVTVSS VL: not shown | IC50 (read off the curve) [5]: ~2 µg/mL |
| ~0.02 | – | ~0.01 | Human Engineered RX1 antibody heRX1-1.G4 (antibody, V domains shown) VH: DVQLQESGPGLVKPSQTLSLTCTVTDYSITSDYAWNWIRQFPGKKLEWMGYISYSGSTSYNPSLKSRITISRDTSKNQFSLQLNSVTAADTATYYCASFDYAHAMDYWGQGTTVTVSS VL: EIVLTQSPGTLSVSPGERVTFSCRASQSIGTSIHWYQQKTGQSPRLLIKYASERISGIPDRFSGSGSGTDFTLTISRVESEDFADYYCQQINSWPTTFGQGTKLEIKR | – |
| ~0.02 | – | ~0.01 | Human Engineered RX1 antibody heRX1-1.G1 (antibody, V domains shown) VH: DVQLQESGPGLVKPSQTLSLTCTVTDYSITSDYAWNWIRQFPGKKLEWMGYISYSGSTSYNPSLKSRITISRDTSKNQFSLQLNSVTAADTATYYCASFDYAHAMDYWGQGTTVTVSS VL: EIVLTQSPGTLSVSPGERVTFSCRASQSIGTSIHWYQQKTGQSPRLLIKYASERISGIPDRFSGSGSGTDFTLTISRVESEDFADYYCQQINSWPTTFGQGTKLEIKR | – |
| ~0.02 | – | ~0.01 | M-CSF-specific murine monoclonal antibody RX1 (antibody, V domains shown, Hybridoma-derived and recombinant murine RX1 are written as one molecule; also called Murine RX1; rRX1(mouse)) VH: DVQLQESGPGLVKPSQSLSLTCTVTDYSITSDYAWNWIRQFPGNKLEWMGYISYSGSTSYNPSLKSRISITRDTSKNQFFLQLNSVTTEDTATYYCASFDYAHAMDYWGQGTSVTVSS VL: not shown | IC50 (read off the curve) [5]: ~0.02 µg/mL; size of antigen-antibody complex [4]: ~200 kDa; EC50 (M-CSF neutralisation) [6]: 0.002 µg/mL |
| – | 6.1 | – | Human Engineered RX1 antibody heRX1-7.G2 (antibody, V domains shown) VH: DVQLQESGPGLVKPSQTLSLTCTVTDYSITSDYAWNWIRQFPGKKLEWMGYISYSGSTSYNPSLKSRITISRDTSKNQFSLQLNSVTAADTATYYCASFDYAHAMDYWGQGTTVTVSS VL: EIVLTQSPGTLSVSPGERVTFSCRASQSIGTSIHWYQQKTGQAPRLLIKYASESISGIPDRFSGSGSGTDFTLTISRVESEDFADYYCQQINSWPTTFGQGTKLEIKR | – |
| – | 5.3 | – | Human Engineered RX1 antibody heRX1-3.G2 (antibody, V domains shown) VH: DVQLQESGPGLVKPSQTLSLTCTVTDYSITSDYAWNWIRQFPGKKLEWMGYISYSGSTSYNPSLKSRITISRDTSKNQFSLQLNSVTAADTATYYCASFDYAHAMDYWGQGTTVTVSS VL: EIVLTQSPGTLSVSPGERVTFSCRASQSIGTSIHWYQQKTGQAPRLLIKYASERATGIPDRFSGSGSGTDFTLTISRVESEDFADYYCQQINSWPTTFGQGTKLEIKR | – |
| – | 4.6 | – | Human Engineered RX1 antibody heRX1-4.G2 (antibody, V domains shown) VH: QVQLQESGPGLVKPSQTLSLTCTVSDYSITSDYAWNWIRQFPGKGLEWMGYISYSGSTSYNPSLKSRITISRDTSKNQFSLQLNSVTAADTAVYYCASFDYAHAMDYWGQGTTVTVSS VL: EIVLTQSPGTLSVSPGERVTFSCRASQSIGTSIHWYQQKTGQAPRLLIKYASERATGIPDRFSGSGSGTDFTLTISRVESEDFADYYCQQINSWPTTFGQGTKLEIKR | – |
| – | 6.5 | – | Human Engineered RX1 antibody heRX1-5.G2 (antibody, V domains shown) VH: DVQLQESGPGLVKPSQTLSLTCTVTDYSITSDYAWNWIRQFPGKKLEWMGYISYSGSTSYNPSLKSRITISRDTSKNQFSLQLNSVTAADTATYYCASFDYAHAMDYWGQGTTVTVSS VL: EIVLTQSPGTLSVSPGERVTFSCRASQSIGTSIHWYQQKTGQSPRLLIKYASESISGIPDRFSGSGSGTDFTLTISRVESEDFADYYCQQINSWPTTFGQGTKLEIKR | – |
| – | 3.1 | – | Human Engineered RX1 antibody heRX1-2.G2 (antibody, V domains shown) VH: QVQLQESGPGLVKPSQTLSLTCTVSDYSITSDYAWNWIRQFPGKGLEWMGYISYSGSTSYNPSLKSRITISRDTSKNQFSLQLNSVTAADTAVYYCASFDYAHAMDYWGQGTTVTVSS VL: EIVLTQSPGTLSVSPGERVTFSCRASQSIGTSIHWYQQKTGQSPRLLIKYASERISGIPDRFSGSGSGTDFTLTISRVESEDFADYYCQQINSWPTTFGQGTKLEIKR | – |
| – | 3.6 | – | Human Engineered RX1 antibody heRX1-9.G2 (antibody, V domains shown, Human Gamma-2 / Kappa constant regions) VH: DVQLQESGPGLVKPSQTLSLTCTVTDYSITSDYAWNWIRQFPGKKLEWMGYISYSGSTSYNPSLKSRITISRDTSKNQFSLQLNSVTAADTATYYCASFDYAHAMDYWGQGTTVTVSS VL: DIVLTQSPAFLSVTPGEKVTFTCQASQSIGTSIHWYQQKTDQAPKLLIKYASESISGIPSRFSGSGSGTDFTLTISSVEAEDAADYYCQQINSWPTTFGGGTKLEIKR | size of antigen-antibody complex [4]: ~400 kDa |
| – | 5.9 | – | Human Engineered RX1 antibody heRX1-8.G2 (antibody, V domains shown) VH: QVQLQESGPGLVKPSQTLSLTCTVSDYSITSDYAWNWIRQFPGKGLEWMGYISYSGSTSYNPSLKSRITISRDTSKNQFSLQLNSVTAADTAVYYCASFDYAHAMDYWGQGTTVTVSS VL: EIVLTQSPGTLSVSPGERVTFSCRASQSIGTSIHWYQQKTGQAPRLLIKYASESISGIPDRFSGSGSGTDFTLTISRVESEDFADYYCQQINSWPTTFGQGTKLEIKR | – |
